Residue numbers refer to the chain shown, from its start.
B1: NRC3_wobSeed95_DR3_G22T_o1 (dsDNA)
DNA 1: GCAGAACGAGGGCAATGAGTTTATAGCACGGGTGGCGCGATTGACAGCGTAGAATGAAGG
DNA 2: CCTTCATTCTACGCTGTCAATCGCGCCACCCGTGCTATAAACTCATTGCCCTCGTTCTGC
B2: NRC3_wobSeed95_DR3_A9G_o1 (dsDNA)
DNA 1: B1 DNA 1 with A9G, T22G
DNA 2: B1 DNA 2 with A39C, T52C
B3: NRC3_wobSeed21_DR0_T5A_o1 (dsDNA)
DNA 1: GCCGACAAAGTTCAAGGTAACGTAACAGAAAGCAGCGCGATTGACAGCGTAGAATGAAGG
DNA 2: CCTTCATTCTACGCTGTCAATCGCGCTGCTTTCTGTTACGTTACCTTGAACTTTGTCGGC
B4: NRC3_wobSeed133_DR5_G21T_o1 (dsDNA)
DNA 1: GCCGTCCAAGGTCAATGCTATGTCAGTGAAAGCATTGCGATTGACAGCGTAGAATGAAGG
DNA 2: CCTTCATTCTACGCTGTCAATCGCAATGCTTTCACTGACATAGCATTGACCTTGGACGGC
B5: NRC3_wobSeed92_DR3_A20T_o1 (dsDNA)
DNA 1: GCAGAATGAGGTTATTAAGTTCAGGGAATTGCGGTCGCGATTGACAGCGTAGAATGAAGG
DNA 2: CCTTCATTCTACGCTGTCAATCGCGACCGCAATTCCCTGAACTTAATAACCTCATTCTGC
B6: NRC3_wobSeed92_DR3_A20G_o1 (dsDNA)
DNA 1: B5 DNA 1 with T20G
DNA 2: B5 DNA 2 with A41C
B7: NRC3_wobSeed22_DR0_T25C_o1 (dsDNA)
DNA 1: GCTTACCAAGGTGAAGGTCGTTGACCCCTCTGTAGAGCGATTGACAGCGTAGAATGAAGG
DNA 2: CCTTCATTCTACGCTGTCAATCGCTCTACAGAGGGGTCAACGACCTTCACCTTGGTAAGC
B8: NRC3_wobSeed76_DR3_C12T_o1 (dsDNA)
DNA 1: GCCCTACTGGGTCAAAAAGGTCATTGATGCCGATAAGCGATTGACAGCGTAGAATGAAGG
DNA 2: CCTTCATTCTACGCTGTCAATCGCTTATCGGCATCAATGACCTTTTTGACCCAGTAGGGC
B9: NRC3_wobSeed86_DR3_T8G_o1 (dsDNA)
DNA 1: GCGCTGCGAGGTCAGGTTGGTCAGCTAACGGGTACGGCGATTGACAGCGTAGAATGAAGG
DNA 2: CCTTCATTCTACGCTGTCAATCGCCGTACCCGTTAGCTGACCAACCTGACCTCGCAGCGC
B10: NRC3_wobSeed72_DR2_A6C_o1 (dsDNA)
DNA 1: GCTCGCGTAGGTTACGGGGGCATTCAGGGATGAAGAGCGATTGACAGCGTAGAATGAAGG
DNA 2: CCTTCATTCTACGCTGTCAATCGCTCTTCATCCCTGAATGCCCCCGTAACCTACGCGAGC
B11: NRC3_wobSeed122_DR5_C28A_o1 (dsDNA)
DNA 1: GCGCTAGTTGGTCAGTAAAAGGTCACAAACCGGTCGGCGATTGACAGCGTAGAATGAAGG
DNA 2: CCTTCATTCTACGCTGTCAATCGCCGACCGGTTTGTGACCTTTTACTGACCAACTAGCGC
B12: NRC3_wobSeed41_DR1_C24G_o1 (dsDNA)
DNA 1: GCATATGTAGGTTAAGGGTCATTGAGGTTGGTTCGCGCGATTGACAGCGTAGAATGAAGG
DNA 2: CCTTCATTCTACGCTGTCAATCGCGCGAACCAACCTCAATGACCCTTAACCTACATATGC
B13: NRC3_wobSeed94_DR3_G13T_o1 (dsDNA)
DNA 1: GCCTACCAAGGTTAACAAGGTCGTTGATTACTATTCGCGATTGACAGCGTAGAATGAAGG
DNA 2: CCTTCATTCTACGCTGTCAATCGCGAATAGTAATCAACGACCTTGTTAACCTTGGTAGGC
B14: NRC3_wobSeed94_DR3_A17G_o1 (dsDNA)
DNA 1: B13 DNA 1 with T13G, A17G
DNA 2: B13 DNA 2 with T44C, A48C
B15: NRC3_wobSeed61_DR2_T24G_o1 (dsDNA)
DNA 1: GCCGTCCAAGGTCAGCAGGTCAGGGAAAGCGACGTGGCGATTGACAGCGTAGAATGAAGG
DNA 2: CCTTCATTCTACGCTGTCAATCGCCACGTCGCTTTCCCTGACCTGCTGACCTTGGACGGC
B16: NRC3_wobSeed61_DR2_G4C_o1 (dsDNA)
DNA 1: B15 DNA 1 with G4C, G24T
DNA 2: B15 DNA 2 with C37A, C57G
B17: NRC3_wobSeed61_DR2_G25A_o1 (dsDNA)
DNA 1: B15 DNA 1 with G24T, G25A
DNA 2: B15 DNA 2 with C36T, C37A
B18: NRC3_wobSeed61_DR2_o1 (dsDNA)
DNA 1: B15 DNA 1 with G24T
DNA 2: B15 DNA 2 with C37A
B19: NRC3_wobSeed74_DR3_G16C_o1 (dsDNA)
DNA 1: GCTCTAGTTGGTCACCGAGGTCACACACGACGGGTAGCGATTGACAGCGTAGAATGAAGG
DNA 2: CCTTCATTCTACGCTGTCAATCGCTACCCGTCGTGTGTGACCTCGGTGACCAACTAGAGC
B20: NRC3_wobSeed74_DR3_G20T_o1 (dsDNA)
DNA 1: B19 DNA 1 with C16G, G20T
DNA 2: B19 DNA 2 with C41A, G45C
B21: NRC3_wobSeed74_DR3_A14C_o1 (dsDNA)
DNA 1: B19 DNA 1 with A14C, C16G
DNA 2: B19 DNA 2 with G45C, T47G
B22: NRC3_wobSeed2_DR0_A22T_o1 (dsDNA)
DNA 1: GCCCTAGTTGGTCAAGGTCACTCACGCTATAGGTACGCGATTGACAGCGTAGAATGAAGG
DNA 2: CCTTCATTCTACGCTGTCAATCGCGTACCTATAGCGTGAGTGACCTTGACCAACTAGGGC
B23: NRC3_wobSeed27_DR1_G7C_o1 (dsDNA)
DNA 1: GCACTCCGAGGACAAAGGTCAGAGCTACGCCAGTGAGCGATTGACAGCGTAGAATGAAGG
DNA 2: CCTTCATTCTACGCTGTCAATCGCTCACTGGCGTAGCTCTGACCTTTGTCCTCGGAGTGC
B24: NRC3_wobSeed119_DR4_C7A_o1 (dsDNA)
DNA 1: GCGGAAAGAGGGCATTCGAGTTGATAGCATGGCGATGCGATTGACAGCGTAGAATGAAGG
DNA 2: CCTTCATTCTACGCTGTCAATCGCATCGCCATGCTATCAACTCGAATGCCCTCTTTCCGC
B25: NRC3_wobSeed66_DR2_o1 (dsDNA)
DNA 1: GCAATACAGGGTCACTAGGCCAGAGTAGGTACGAATGCGATTGACAGCGTAGAATGAAGG
DNA 2: CCTTCATTCTACGCTGTCAATCGCATTCGTACCTACTCTGGCCTAGTGACCCTGTATTGC
B26: NRC3_wobSeed66_DR2_G9A_o1 (dsDNA)
DNA 1: B25 DNA 1 with G9A
DNA 2: B25 DNA 2 with C52T
B27: NRC3_wobSeed65_DR2_C25G_o1 (dsDNA)
DNA 1: GCATATGTAGGTTATCGGGTCATTGAGTTTGCGCATGCGATTGACAGCGTAGAATGAAGG
DNA 2: CCTTCATTCTACGCTGTCAATCGCATGCGCAAACTCAATGACCCGATAACCTACATATGC
B28: NRC3_wobSeed65_DR2_C16G_o1 (dsDNA)
DNA 1: B27 DNA 1 with C16G, G25C
DNA 2: B27 DNA 2 with C36G, G45C
B29: NRC3_wobSeed50_DR2_G7A_o1 (dsDNA)
DNA 1: GCCCTAATTGGTCAGGAGGTCACACACCGGATATGAGCGATTGACAGCGTAGAATGAAGG
DNA 2: CCTTCATTCTACGCTGTCAATCGCTCATATCCGGTGTGTGACCTCCTGACCAATTAGGGC
B30: NRC3_wobSeed124_DR5_C17T_o1 (dsDNA)
DNA 1: GCCCTACTGGGCCATTTAGAGGTCATTGATCATATGGCGATTGACAGCGTAGAATGAAGG
DNA 2: CCTTCATTCTACGCTGTCAATCGCCATATGATCAATGACCTCTAAATGGCCCAGTAGGGC
B31: NRC3_wobSeed124_DR5_A29G_o1 (dsDNA)
DNA 1: B30 DNA 1 with T17C, A29G
DNA 2: B30 DNA 2 with T32C, A44G
B32: NRC3_wobSeed82_DR3_T21G_o1 (dsDNA)
DNA 1: GCATCGAAAGGTCGACGAGGGGAGTATACACCGTTTGCGATTGACAGCGTAGAATGAAGG
DNA 2: CCTTCATTCTACGCTGTCAATCGCAAACGGTGTATACTCCCCTCGTCGACCTTTCGATGC
B33: NRC3_wobSeed69_DR2_T5A_o1 (dsDNA)
DNA 1: GCAGACAAAGTTCACTAGGTAACGTAAGATTCAGCTGCGATTGACAGCGTAGAATGAAGG
DNA 2: CCTTCATTCTACGCTGTCAATCGCAGCTGAATCTTACGTTACCTAGTGAACTTTGTCTGC
B34: NRC3_wobSeed101_DR4_o1 (dsDNA)
DNA 1: GCCCTTACGGGTCACTCCAGGTTATAGCATCGGAGTGCGATTGACAGCGTAGAATGAAGG
DNA 2: CCTTCATTCTACGCTGTCAATCGCACTCCGATGCTATAACCTGGAGTGACCCGTAAGGGC

Molecular target: VDR:RXRa (Homo sapiens, UniProt P11473;P19793 full;full)
Assay: no ligand; PBM; 270 nM : 90 nM RXRa; PBS pH 7.4, 2% milk, 0.02% Triton X-100, 1 mM DTT, BSA, 0.4 mg/ml salmon testes DNA
Conditions: tags: His kept;His cleaved; copies: 1;1; label: surface-attached array probe
Summary of the method: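 Binding z-scores take random background probes as their reference. They come from custom Agilent 4×180K protein-binding microarrays incubated 1 h with ligand-free nuclear receptor dimers, with antibodies against each partner (one per run) detecting binding. Scanned fluorescence was regression-normalized.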

Chain of VDR:RXRa (P11473 whole entry, chain 1 of 2): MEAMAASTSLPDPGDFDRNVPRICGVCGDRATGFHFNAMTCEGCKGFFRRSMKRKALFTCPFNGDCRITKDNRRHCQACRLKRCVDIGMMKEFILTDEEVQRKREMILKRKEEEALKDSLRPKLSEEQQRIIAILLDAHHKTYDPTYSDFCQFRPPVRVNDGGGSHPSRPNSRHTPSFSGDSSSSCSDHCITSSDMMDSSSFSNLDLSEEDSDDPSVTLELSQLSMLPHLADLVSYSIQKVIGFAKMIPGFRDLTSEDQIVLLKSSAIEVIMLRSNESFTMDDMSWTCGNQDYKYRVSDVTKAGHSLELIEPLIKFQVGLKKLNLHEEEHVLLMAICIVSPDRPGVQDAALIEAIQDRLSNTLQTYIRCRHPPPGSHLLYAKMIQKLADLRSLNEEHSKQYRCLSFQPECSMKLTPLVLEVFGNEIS
Chain of VDR:RXRa (P19793 whole entry, chain 2 of 2): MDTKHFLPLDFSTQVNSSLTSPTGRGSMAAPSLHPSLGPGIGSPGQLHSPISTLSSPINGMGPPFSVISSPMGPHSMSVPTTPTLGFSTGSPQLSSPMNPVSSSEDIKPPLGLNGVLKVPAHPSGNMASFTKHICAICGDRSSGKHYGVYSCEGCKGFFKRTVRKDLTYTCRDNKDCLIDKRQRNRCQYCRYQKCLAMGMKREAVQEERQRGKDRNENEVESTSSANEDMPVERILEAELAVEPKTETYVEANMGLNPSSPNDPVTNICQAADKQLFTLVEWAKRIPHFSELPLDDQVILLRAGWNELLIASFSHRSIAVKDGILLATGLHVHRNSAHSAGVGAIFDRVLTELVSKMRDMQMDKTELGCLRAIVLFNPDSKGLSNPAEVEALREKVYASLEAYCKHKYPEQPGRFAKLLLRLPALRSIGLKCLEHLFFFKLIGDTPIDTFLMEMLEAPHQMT

| Binder | binding signal |
| --- | --- |
| B1 | 6.73 PBM z-score against 500 random probes |
| B2 | 6.59 PBM z-score against 500 random probes |
| B3 | 3.74 PBM z-score against 500 random probes |
| B4 | 3.76 PBM z-score against 500 random probes |
| B5 | 6.9 PBM z-score against 500 random probes |
| B6 | 6.76 PBM z-score against 500 random probes |
| B7 | 4.04 PBM z-score against 500 random probes |
| B8 | 6.93 PBM z-score against 500 random probes |
| B9 | 3.78 PBM z-score against 500 random probes |
| B10 | 3.92 PBM z-score against 500 random probes |
| B11 | 3.68 PBM z-score against 500 random probes |
| B12 | 6.5 PBM z-score against 500 random probes |
| B13 | 6.93 PBM z-score against 500 random probes |
| B14 | 6.62 PBM z-score against 500 random probes |
| B15 | 4.03 PBM z-score against 500 random probes |
| B16 | 3.8 PBM z-score against 500 random probes |
| B17 | 4 PBM z-score against 500 random probes |

| Binder | binding signal |
| --- | --- |
| B18 | 3.97 PBM z-score against 500 random probes |
| B19 | 6.63 PBM z-score against 500 random probes |
| B20 | 6.57 PBM z-score against 500 random probes |
| B21 | 3.63 PBM z-score against 500 random probes |
| B22 | 3.83 PBM z-score against 500 random probes |
| B23 | 3.7 PBM z-score against 500 random probes |
| B24 | 4.08 PBM z-score against 500 random probes |
| B25 | 4.15 PBM z-score against 500 random probes |
| B26 | 4.1 PBM z-score against 500 random probes |
| B27 | 6.9 PBM z-score against 500 random probes |
| B28 | 6.73 PBM z-score against 500 random probes |
| B29 | 3.96 PBM z-score against 500 random probes |
| B30 | 3.9 PBM z-score against 500 random probes |
| B31 | 3.87 PBM z-score against 500 random probes |
| B32 | 3.65 PBM z-score against 500 random probes |
| B33 | 3.85 PBM z-score against 500 random probes |
| B34 | 4.06 PBM z-score against 500 random probes |
